This is an account of results in patent publication US20140213531A1 (POLYPHOR, published 2014).

As usually defined, the % inhibition is the percentage by which the read-out fell short of the control.

Bridges are numbered along the chain shown (N, C = ends). [ ]: non-standard residue; d: D form. Nle = CCCC[C@H](N)C(=O)O; Abu = CC[C@H](N)C(=O)O

Common to all, as to test: cell-based or functional assay
Experiment [1] addresses T1, CathepsinG, from human neutrophils (human, UniProt P08311 21-244).
T1 sequence (looked up): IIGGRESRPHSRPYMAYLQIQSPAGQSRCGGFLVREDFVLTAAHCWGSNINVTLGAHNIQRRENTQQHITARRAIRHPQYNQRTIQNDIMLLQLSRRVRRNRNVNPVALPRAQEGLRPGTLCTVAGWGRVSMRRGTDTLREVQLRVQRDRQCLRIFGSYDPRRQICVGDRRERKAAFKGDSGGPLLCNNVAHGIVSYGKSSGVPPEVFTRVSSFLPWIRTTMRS

Experiment [2] has as its target T2, Elastase from human neutrophils (human, UniProt P08246 30-247, limits assumed).
T2 sequence (looked up): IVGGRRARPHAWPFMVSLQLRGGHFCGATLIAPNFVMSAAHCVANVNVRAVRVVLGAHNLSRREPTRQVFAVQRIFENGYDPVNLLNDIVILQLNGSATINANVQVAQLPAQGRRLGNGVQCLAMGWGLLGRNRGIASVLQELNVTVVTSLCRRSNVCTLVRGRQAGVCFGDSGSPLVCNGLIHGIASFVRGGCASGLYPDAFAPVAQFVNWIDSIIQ

Experiment [3] addresses Trypsin, Iodination grade, from human pancreas (human, UniProt P07477 24-247).
The target of experiment [4] is T3, Chymase, from human skin (human, UniProt P23946 22-247).
T3 sequence (looked up): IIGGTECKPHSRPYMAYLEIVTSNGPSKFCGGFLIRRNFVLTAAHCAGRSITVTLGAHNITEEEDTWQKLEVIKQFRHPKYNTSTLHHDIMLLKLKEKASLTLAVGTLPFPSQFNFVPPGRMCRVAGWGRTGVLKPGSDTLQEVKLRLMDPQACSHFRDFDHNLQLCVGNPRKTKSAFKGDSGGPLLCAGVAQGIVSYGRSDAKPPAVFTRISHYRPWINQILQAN

B1: Example 53 (peptide)
peptide: FCTKSDPPXCS
HELM: PEPTIDE1{F.C.T.K.S.D.P.P.[Nle].C.S.[dP].P}$PEPTIDE1,PEPTIDE1,2:R3-10:R3|PEPTIDE1,PEPTIDE1,1:R1-13:R2$$$V2.0
SMILES: CCCC[C@@H]1NC(=O)[C@@H]2CCCN2C(=O)[C@@H]2CCCN2C(=O)[C@H](CC(=O)O)NC(=O)[C@H](CO)NC(=O)[C@H](CCCCN)NC(=O)[C@H]([C@@H](C)O)NC(=O)[C@@H]2CSSC[C@H](NC1=O)C(=O)N[C@@H](CO)C(=O)N1CCC[C@@H]1C(=O)N1CCC[C@H]1C(=O)N[C@@H](Cc1ccccc1)C(=O)N2
As for B1, the IC50 in experiment [1] is 56 nmol; in experiment [2] it was above 100000 nmol. The “% inhibition at 100 µM” value amounted to 95% in experiment [3] and 12.7% in experiment [4].

B2: Example 79 (peptide)
peptide: XCTASXPPQCY
HELM: PEPTIDE1{[Nle].C.T.A.S.[Nle].P.P.Q.C.Y.[dP].P}$PEPTIDE1,PEPTIDE1,2:R3-10:R3|PEPTIDE1,PEPTIDE1,1:R1-13:R2$$$V2.0
SMILES: CCCC[C@@H]1NC(=O)[C@@H]2CCCN2C(=O)[C@H]2CCCN2C(=O)[C@H](Cc2ccc(O)cc2)NC(=O)[C@@H]2CSSC[C@H](NC1=O)C(=O)N[C@@H]([C@@H](C)O)C(=O)N[C@@H](C)C(=O)N[C@@H](CO)C(=O)N[C@@H](CCCC)C(=O)N1CCC[C@H]1C(=O)N1CCC[C@H]1C(=O)N[C@@H](CCC(N)=O)C(=O)N2
The molecule B2 yielded an IC50 in experiment [2] of 66 nmol.

For the molecule cyclo(FCTKSDPPICS[dT]P) (disulfide 2-10) [Example 72], the IC50 in experiment [1] was 87 nmol.

Regarding cyclo(FCTKSDPPICS[dP]L) (disulfide 2-10) [Example 51], the figures for the IC50 in experiment [1] and in experiment [2] were 91 nmol and above 100000 nmol, respectively.

B3: Example 9 (peptide)
peptide: XCTKSDPPICS
HELM: PEPTIDE1{[Nc1ccc(C[C@H](N[*:1])C(=O)[*:2])cc1].C.T.K.S.D.P.P.I.C.S.[dP].P}$PEPTIDE1,PEPTIDE1,2:R3-10:R3|PEPTIDE1,PEPTIDE1,1:R1-13:R2$$$V2.0
SMILES: CC[C@H](C)[C@@H]1NC(=O)[C@@H]2CCCN2C(=O)[C@@H]2CCCN2C(=O)[C@H](CC(=O)O)NC(=O)[C@H](CO)NC(=O)[C@H](CCCCN)NC(=O)[C@H]([C@@H](C)O)NC(=O)[C@@H]2CSSC[C@H](NC1=O)C(=O)N[C@@H](CO)C(=O)N1CCC[C@@H]1C(=O)N1CCC[C@H]1C(=O)N[C@@H](Cc1ccc(N)cc1)C(=O)N2
For the molecule B3, the IC50 in experiment [1] came to 105 nmol. Further, the “% inhibition at 100 µM” value in experiment [2] came to 4.1%; in experiment [3], 88.1%.

B4: Example 10 (peptide)
peptide: XCTKSDPPICS
HELM: PEPTIDE1{[Nle].C.T.K.S.D.P.P.I.C.S.[dP].P}$PEPTIDE1,PEPTIDE1,2:R3-10:R3|PEPTIDE1,PEPTIDE1,1:R1-13:R2$$$V2.0
SMILES: CCCC[C@@H]1NC(=O)[C@@H]2CCCN2C(=O)[C@H]2CCCN2C(=O)[C@H](CO)NC(=O)[C@@H]2CSSC[C@H](NC1=O)C(=O)N[C@@H]([C@@H](C)O)C(=O)N[C@@H](CCCCN)C(=O)N[C@@H](CO)C(=O)N[C@@H](CC(=O)O)C(=O)N1CCC[C@H]1C(=O)N1CCC[C@H]1C(=O)N[C@@H]([C@@H](C)CC)C(=O)N2
For the molecule B4, in experiment [1], the IC50 worked out at 75 nmol. Also, the “% inhibition at 100 µM” value came out at 0.3% in experiment [2], 89.9% in experiment [3] and 9.4% in experiment [4].

B5: Example 76 (peptide)
peptide: ICTASLPPQCY
HELM: PEPTIDE1{I.C.T.A.S.L.P.P.Q.C.Y.[dP].P}$PEPTIDE1,PEPTIDE1,2:R3-10:R3|PEPTIDE1,PEPTIDE1,1:R1-13:R2$$$V2.0
SMILES: CC[C@H](C)[C@@H]1NC(=O)[C@@H]2CCCN2C(=O)[C@H]2CCCN2C(=O)[C@H](Cc2ccc(O)cc2)NC(=O)[C@@H]2CSSC[C@H](NC1=O)C(=O)N[C@@H]([C@@H](C)O)C(=O)N[C@@H](C)C(=O)N[C@@H](CO)C(=O)N[C@@H](CC(C)C)C(=O)N1CCC[C@H]1C(=O)N1CCC[C@H]1C(=O)N[C@@H](CCC(N)=O)C(=O)N2
On to B5, for which the IC50 in experiment [2] stood at 71 nmol.

B6: Example 80 (peptide)
peptide: XCTASXPPQCY
HELM: PEPTIDE1{[Nle].C.T.A.S.[CCCCCC[C@H](N[*:1])C(=O)[*:2]].P.P.Q.C.Y.[dP].P}$PEPTIDE1,PEPTIDE1,2:R3-10:R3|PEPTIDE1,PEPTIDE1,1:R1-13:R2$$$V2.0
SMILES: CCCCCC[C@@H]1NC(=O)[C@H](CO)NC(=O)[C@H](C)NC(=O)[C@H]([C@@H](C)O)NC(=O)[C@@H]2CSSC[C@H](NC(=O)[C@H](CCC(N)=O)NC(=O)[C@@H]3CCCN3C(=O)[C@@H]3CCCN3C1=O)C(=O)N[C@@H](Cc1ccc(O)cc1)C(=O)N1CCC[C@@H]1C(=O)N1CCC[C@H]1C(=O)N[C@@H](CCCC)C(=O)N2
B6 gave an IC50 in experiment [2] of 35 nmol.

B7: Example 77 (peptide)
peptide: XCTTSIPPYCY
HELM: PEPTIDE1{[Nle].C.T.T.S.I.P.P.Y.C.Y.[dP].P}$PEPTIDE1,PEPTIDE1,2:R3-10:R3|PEPTIDE1,PEPTIDE1,1:R1-13:R2$$$V2.0
SMILES: CCCC[C@@H]1NC(=O)[C@@H]2CCCN2C(=O)[C@H]2CCCN2C(=O)[C@H](Cc2ccc(O)cc2)NC(=O)[C@@H]2CSSC[C@H](NC1=O)C(=O)N[C@@H]([C@@H](C)O)C(=O)N[C@@H]([C@@H](C)O)C(=O)N[C@@H](CO)C(=O)N[C@@H]([C@@H](C)CC)C(=O)N1CCC[C@H]1C(=O)N1CCC[C@H]1C(=O)N[C@@H](Cc1ccc(O)cc1)C(=O)N2
B7: the IC50 in experiment [2] was 68 nmol.

With cyclo(FCTKSDPPICS[dP]L) (disulfide 2-10) [Example 74], the IC50 is 91 nmol in experiment [1] and above 100000 nmol in experiment [2]. Besides, the “% inhibition at 100 µM” value in experiment [3] worked out at 86%.

B8: Example 71 (peptide)
peptide: XCTKSDPPXCR
HELM: PEPTIDE1{[O=C([C@@H](N[*:1])C1CCCCC1)[*:2]].C.T.K.S.D.P.P.[Cha].C.R.[dP].P}$PEPTIDE1,PEPTIDE1,2:R3-10:R3|PEPTIDE1,PEPTIDE1,1:R1-13:R2$$$V2.0
SMILES: C[C@@H](O)[C@@H]1NC(=O)[C@@H]2CSSC[C@H](NC(=O)[C@H](CC3CCCCC3)NC(=O)[C@@H]3CCCN3C(=O)[C@@H]3CCCN3C(=O)[C@H](CC(=O)O)NC(=O)[C@H](CO)NC(=O)[C@H](CCCCN)NC1=O)C(=O)N[C@@H](CCCNC(=N)N)C(=O)N1CCC[C@@H]1C(=O)N1CCC[C@H]1C(=O)N[C@@H](C1CCCCC1)C(=O)N2
For the molecule B8, the IC50 in experiment [1] turned out to be 70 nmol.

B9: Example 83 (peptide)
peptide: XCTASXPPQCY
HELM: PEPTIDE1{[Nle].C.T.A.S.[CC(C)CC[C@H](N[*:1])C(=O)[*:2]].P.P.Q.C.Y.[dP].P}$PEPTIDE1,PEPTIDE1,2:R3-10:R3|PEPTIDE1,PEPTIDE1,1:R1-13:R2$$$V2.0
SMILES: CCCC[C@@H]1NC(=O)[C@@H]2CCCN2C(=O)[C@H]2CCCN2C(=O)[C@H](Cc2ccc(O)cc2)NC(=O)[C@@H]2CSSC[C@H](NC1=O)C(=O)N[C@@H]([C@@H](C)O)C(=O)N[C@@H](C)C(=O)N[C@@H](CO)C(=O)N[C@@H](CCC(C)C)C(=O)N1CCC[C@H]1C(=O)N1CCC[C@H]1C(=O)N[C@@H](CCC(N)=O)C(=O)N2
In experiment [2], B9 had an IC50 of 43 nmol.

On to cyclo([Nle]CT[Abu]SIPPQCY[dP]P) (disulfide 2-10) [Example 78], for which, in experiment [2], the IC50 came to 29 nmol.

B10: Example 25 (peptide)
peptide: FCTKXDPPICS
HELM: PEPTIDE1{F.C.T.K.[NC[C@H](N[*:1])C(=O)[*:2]].D.P.P.I.C.S.[dP].P}$PEPTIDE1,PEPTIDE1,2:R3-10:R3|PEPTIDE1,PEPTIDE1,1:R1-13:R2$$$V2.0
SMILES: CC[C@H](C)[C@@H]1NC(=O)[C@@H]2CCCN2C(=O)[C@@H]2CCCN2C(=O)[C@H](CC(=O)O)NC(=O)[C@H](CN)NC(=O)[C@H](CCCCN)NC(=O)[C@H]([C@@H](C)O)NC(=O)[C@@H]2CSSC[C@H](NC1=O)C(=O)N[C@@H](CO)C(=O)N1CCC[C@@H]1C(=O)N1CCC[C@H]1C(=O)N[C@@H](Cc1ccccc1)C(=O)N2
For the molecule B10, the IC50 in experiment [1] worked out at 102 nmol. Further, the “% inhibition at 100 µM” value was found to be 3.2% in experiment [2], 89.3% in experiment [3] and 10% in experiment [4].
